This series has as its target SRSF1-RBD (UniProt Q07955 1-203). Briefly: EMSA. On the technique in general: Mobility shift assays separate free from complexed probe on a gel.

Chain of SRSF1-RBD (Q07955 1-203): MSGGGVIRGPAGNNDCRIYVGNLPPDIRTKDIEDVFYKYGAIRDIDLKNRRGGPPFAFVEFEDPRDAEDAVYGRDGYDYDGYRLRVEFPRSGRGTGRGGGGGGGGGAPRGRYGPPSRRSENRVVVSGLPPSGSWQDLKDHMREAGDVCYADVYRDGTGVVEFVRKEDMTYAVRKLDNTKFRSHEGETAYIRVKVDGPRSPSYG

B1: AdML pre-mRNA (structured_RNA)
RNA: GAGCUCGGUACCCCGUUCGUCCUCACUCUCUUCCGCAUCGCUGUCUGCGAGGGCCAGCUGUUGGGGUGAGUACUCCCUCUCAAAAGCGGGCAUGACUUCUGCCCUCGAGUUAUUAACCCUCACUAAAGGCAGUAGUCAAGGGUUUCCUUGAAGCUUUCGUGCUGACCCUGUCCCUUUUUUUUCCACAGCUGCAGGUCGACGUUGAGGACAAACUCUUCGCGGUCUUUCCAGUACUCUU
Take B1: the binding result was “binds”.
